Substitutions are numbered along the chain they refer to. Names and notes keep the numbering of the source.

Results on 22 molecules are retold here after US20230192860A1 (Bristol-Myers Squibb, published 2023).

B1: P1-061015 (antibody, V domains shown)
VH: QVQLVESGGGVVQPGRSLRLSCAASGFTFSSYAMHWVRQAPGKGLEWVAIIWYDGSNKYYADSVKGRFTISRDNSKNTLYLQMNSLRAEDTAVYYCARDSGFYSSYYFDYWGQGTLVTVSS
VL: EIVLTQSPATLSLSPGERATLSCRASQSVSSSYLAWYQQKPGQAPRLLIYDASNRATGIPARFSGSGSGTDFTLTISSLEPEDFATYYCQQYNSYPYTFGQGTKLEIK
notes: captured on a Protein A chip; also called parental antibody
B2: P1-077881 (P1-068748 D58Y D100S) (antibody, V domains shown)
VH: QVQLVESGGGVVQPGRSLRLSCAASGFTFSHHAMHWVRQAPGKGLEWVAIIWYDGSNDYYADSVKGRFTISRDNSKNTLYLQMNSLRAEDTAVYYCARDSGFYSSYYFDYWGQGTLVTVSS
VL: B1 VL
notes: Reversion mutant of P1-068748 (Kabat names); captured on a Protein A chip
B3: P1-077867 (P1-068748 H32Y) (antibody, V domains shown)
VH: B2 VH with H32Y, Y59D, S104D
VL: B1 VL
notes: as for B2
B4: P1-068748 (antibody, V domains shown)
VH: B2 VH with Y59D, S104D
VL: B1 VL
notes: captured on a Protein A chip
B5: P1-077887 (P1-068748 H31S D100S) (antibody, V domains shown)
VH: B2 VH with H31S, Y59D
VL: B1 VL
notes: as for B2
B6: P1-077875 (P1-068748 H31S H32Y) (antibody, V domains shown)
VH: B2 VH with H31S, H32Y, Y59D, S104D
VL: B1 VL
notes: as for B2
B7: P1-077865 (P1-068748 H31S) (antibody, V domains shown)
VH: B2 VH with H31S, Y59D, S104D
VL: B1 VL
notes: as for B2
B8: P1-077869 (P1-068748 D57K) (antibody, V domains shown)
VH: B2 VH with D58K, Y59D, S104D
VL: B1 VL
notes: as for B2
B9: P1-077883 (P1-068748 H31S D57K) (antibody, V domains shown)
VH: B2 VH with H31S, D58K, Y59D, S104D
VL: B1 VL
notes: as for B2
B10: P1-077873 (P1-068748 D100S) (antibody, V domains shown)
VH: B2 VH with Y59D
VL: B1 VL
notes: as for B2
B11: P1-077877 (P1-068748 H32Y D57K) (antibody, V domains shown)
VH: B2 VH with H32Y, D58K, Y59D, S104D
VL: B1 VL
notes: as for B2
B12: P1-077843 (P1-068744 E102Y) (antibody, V domains shown)
VH: B2 VH with H31E, H32Y, I50H, D58K, Y60E, S104E
VL: B1 VL
B13: P1-077863 (P1-068744 E59Y E102Y) (antibody, V domains shown)
VH: B2 VH with H31E, H32Y, I50H, D58K, S104E
VL: B1 VL
B14: P1-077847 (P1-068744 H50I E59Y) (antibody, V domains shown)
VH: B2 VH with H31E, H32Y, D58K, S104E, Y110E
VL: B1 VL
B15: P1-077859 (P1-068744 H50I E100S) (antibody, V domains shown)
VH: B2 VH with H31E, H32Y, D58K, Y60E, Y110E
VL: B1 VL
B16: P1-077845 (P1-068744 E31S H50I) (antibody, V domains shown)
VH: B2 VH with H31S, H32Y, D58K, Y60E, S104E, Y110E
VL: B1 VL
B17: P1-077851 (P1-068744 E100S E102Y) (antibody, V domains shown)
VH: B2 VH with H31E, H32Y, I50H, D58K, Y60E
VL: B1 VL
B18: P1-077853 (P1-068744 E31S E102Y) (antibody, V domains shown)
VH: B2 VH with H31S, H32Y, I50H, D58K, Y60E, S104E
VL: B1 VL
B19: P1-077861 (P1-068744 H50I E102Y) (antibody, V domains shown)
VH: B2 VH with H31E, H32Y, D58K, Y60E, S104E
VL: B1 VL
B20: P1-077849 (P1-068744 E59Y E100S) (antibody, V domains shown)
VH: B2 VH with H31E, H32Y, I50H, D58K, Y110E
VL: B1 VL
B21: P1-077857 (P1-068744 E31S E100S) (antibody, V domains shown)
VH: B2 VH with H31S, H32Y, I50H, D58K, Y60E, Y110E
VL: B1 VL
B22: P1-077855 (P1-068744 E31S E59Y) (antibody, V domains shown)
VH: B2 VH with H31S, H32Y, I50H, D58K, S104E, Y110E
VL: B1 VL

The target in the first assay is T1, monovalent hVISTA-ECD with polyhistidine tail (SEQ ID NO: 325) (human, UniProt Q9H7M9 33-193).
T1 construct: also called hVISTA-ECD 6-His tag; human VISTA
T1 sequence (Q9H7M9 other isoform, or with tags, fused parts or gaps limits assumed): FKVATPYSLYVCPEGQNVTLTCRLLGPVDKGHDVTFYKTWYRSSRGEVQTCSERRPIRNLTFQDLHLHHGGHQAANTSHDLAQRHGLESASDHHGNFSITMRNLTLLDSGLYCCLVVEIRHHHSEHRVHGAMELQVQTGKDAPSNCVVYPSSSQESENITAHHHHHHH
Briefly: SPR, mAb captured on Protein A chip, hVISTA injected, PBST pH 7.4, 37 C. Background: In SPR one partner is held on a chip, and binding of the other changes the refractive index at the surface.
What is called Kd is the concentration at which binding is half-saturated. Higher therefore signals weaker binding. In general, koff refers to a measure of how fast the partners let go of each other. Read a low koff as a long-lived complex. For orientation: kon means the second-order rate constant of association. Read a low kon as slower complex formation. In the case of B1, the dissociation constant (Kd) was 6.4 nM, the koff was found to be 0.0022 s⁻¹ and the kon was determined as 340000 M⁻¹ s⁻¹.

On to B2, for which the dissociation constant Kd was 22 nM, the off-rate constant (koff) was 0.0036 s⁻¹ and the kon was 160000 M⁻¹ s⁻¹.

Take B3: the Kd was 230 nM, the koff came to 0.026 s⁻¹ and the on-rate (kon) is 120000 M⁻¹ s⁻¹.

Molecule B4 registered a Kd of 600 nM, an off-rate constant (koff) of 0.032 s⁻¹ and a kon of 54000 M⁻¹ s⁻¹.

Take B5: the Kd is 3 nM, the koff amounted to 0.0027 s⁻¹ and the kon was 910000 M⁻¹ s⁻¹.

Take B6: the Kd worked out at 130 nM, the koff was 0.021 s⁻¹ and the kon worked out at 160000 M⁻¹ s⁻¹.

As for B7, the Kd worked out at 410 nM, the koff is 0.028 s⁻¹ and the kon was determined as 69000 M⁻¹ s⁻¹.

B8: binding was put at a Kd of 980 nM, the koff turned out to be 0.027 s⁻¹ and the kon was 28000 M⁻¹ s⁻¹.

In turn, B9 registered a Kd of 510 nM, a koff of 0.035 s⁻¹ and a kon of 68000 M⁻¹ s⁻¹.

Regarding B10, binding was characterised by a dissociation constant (Kd) of 3.6 nM, the koff was determined as 0.003 s⁻¹ and the kon was 850000 M⁻¹ s⁻¹.

B11: the Kd is 270 nM, the koff was found to be 0.024 s⁻¹ and the on-rate constant (kon) was 88000 M⁻¹ s⁻¹.

The target in a further assay is T2, hVISTA-ECD 6-His tag (human, UniProt Q9H7M9 33-193).
T2 construct: also called monovalent hVISTA-ECD; human VISTA
T2 sequence (Q9H7M9 other isoform, or with tags, fused parts or gaps limits assumed): as above
In words: SPR 37 C, Ab on Protein A, pH 7.4.
On to B12, for which the Kd was 2000 nM, the koff was found to be 0.034 s⁻¹ and the kon is 18000 M⁻¹ s⁻¹.

For the molecule B13, the Kd is 1100 nM, the off-rate constant (koff) was 0.055 s⁻¹ and the kon is 63000 M⁻¹ s⁻¹.

Regarding B14, binding was characterised by a dissociation constant (Kd) of 29 nM, the dissociation rate constant (koff) amounted to 0.0035 s⁻¹ and the on-rate constant (kon) stood at 120000 M⁻¹ s⁻¹.

Consider B15, for which the dissociation constant Kd stood at 9.5 nM, the koff came out at 0.0044 s⁻¹ and the association rate constant (kon) came out at 460000 M⁻¹ s⁻¹.

The molecule B16 showed an equilibrium dissociation constant (Kd) of 14 nM, a koff of 0.0038 s⁻¹ and an association rate constant (kon) of 280000 M⁻¹ s⁻¹.

As for B17, the affinity, expressed as Kd, was 2200 nM; the koff was 0.3 s⁻¹; the on-rate (kon) came out at 150000 M⁻¹ s⁻¹.

Regarding B18, the equilibrium dissociation constant (Kd) turned out to be 1200 nM, the koff was 0.024 s⁻¹ and the kon came out at 21000 M⁻¹ s⁻¹.

Consider B19, for which the affinity, expressed as Kd, was 26 nM; the koff was 0.0027 s⁻¹; the kon stood at 100000 M⁻¹ s⁻¹.

B20 displayed a Kd of 6600 nM, a koff of 0.35 s⁻¹ and a kon of 53000 M⁻¹ s⁻¹.

As for B21, the Kd worked out at 520 nM, the koff amounted to 0.16 s⁻¹ and the kon came out at 300000 M⁻¹ s⁻¹.

The molecule B22 yielded a Kd of 5200 nM, a koff of 0.061 s⁻¹ and a kon of 12000 M⁻¹ s⁻¹.

Another assay addresses T2, hVISTA-ECD 6-His tag. Briefly: SPR 37 C, Ab on Protein A, pH 6.0.
B12 yielded an equilibrium dissociation constant (Kd) of 33 nM, a koff of 0.0048 s⁻¹ and a kon of 150000 M⁻¹ s⁻¹.

Take B13: binding was put at a Kd of 130 nM, the koff was 0.017 s⁻¹ and the kon was found to be 140000 M⁻¹ s⁻¹.

Consider B14, for which binding was characterised by a dissociation constant (Kd) of 2.7 nM, the koff amounted to 0.0032 s⁻¹ and the kon stood at 1.2e+06 M⁻¹ s⁻¹.

As for B15, the affinity, expressed as Kd, was 2.3 nM; the koff was found to be 0.0032 s⁻¹; the kon amounted to 1.4e+06 M⁻¹ s⁻¹.

With B16, the Kd amounted to 1.7 nM, the koff is 0.002 s⁻¹ and the kon amounted to 1.2e+06 M⁻¹ s⁻¹.

B17 yielded a Kd of 220 nM, a koff of 0.085 s⁻¹ and a kon of 380000 M⁻¹ s⁻¹.

B18: the Kd is 18 nM, the off-rate constant (koff) was found to be 0.0019 s⁻¹ and the on-rate (kon) came to 110000 M⁻¹ s⁻¹.

Molecule B19 had a dissociation constant (Kd) of 2.6 nM, a koff of 0.0023 s⁻¹ and a kon of 870000 M⁻¹ s⁻¹.

B20: the Kd worked out at 220 nM, the koff is 0.11 s⁻¹ and the kon stood at 500000 M⁻¹ s⁻¹.

B21 came in with a Kd of 120 nM, a koff of 0.097 s⁻¹ and a kon of 820000 M⁻¹ s⁻¹.

B22 displayed a Kd of 36 nM, a koff of 0.0077 s⁻¹ and an association rate constant (kon) of 210000 M⁻¹ s⁻¹.

In the next assay the target is T1, monovalent hVISTA-ECD with …. Briefly: SPR, mAb captured on Protein A chip, hVISTA injected, PBST pH 6.0, 37 C.
With B1, the equilibrium dissociation constant (Kd) turned out to be 1.9 nM, the koff came out at 0.0016 s⁻¹ and the kon stood at 830000 M⁻¹ s⁻¹.

Molecule B2 had a Kd of 53 nM, a koff of 0.0034 s⁻¹ and an association rate constant (kon) of 62000 M⁻¹ s⁻¹.

Consider B3, for which the Kd worked out at 2.2 nM, the koff came out at 0.0029 s⁻¹ and the kon amounted to 1.3e+06 M⁻¹ s⁻¹.

Molecule B4 had a Kd of 11 nM, a koff of 0.0035 s⁻¹ and a kon of 310000 M⁻¹ s⁻¹.

Regarding B5, binding was characterised by a dissociation constant (Kd) of 0.52 nM, the koff was found to be 0.0011 s⁻¹ and the kon is 2.1e+06 M⁻¹ s⁻¹.

With B6, the Kd was found to be 0.94 nM, the koff came out at 0.0018 s⁻¹ and the kon stood at 1.9e+06 M⁻¹ s⁻¹.

Molecule B7 came in with a Kd of 5.2 nM, a koff of 0.0028 s⁻¹ and a kon of 540000 M⁻¹ s⁻¹.

Molecule B8 yielded a Kd of 15 nM, a koff of 0.0026 s⁻¹ and a kon of 170000 M⁻¹ s⁻¹.

In turn, B9 yielded a Kd of 6.7 nM, a koff of 0.002 s⁻¹ and a kon of 310000 M⁻¹ s⁻¹.

For B10, the Kd came out at 0.71 nM, the off-rate (koff) amounted to 0.0012 s⁻¹ and the kon came out at 1.8e+06 M⁻¹ s⁻¹.

B11 showed a Kd of 2.2 nM, a koff of 0.0019 s⁻¹ and an association rate constant (kon) of 840000 M⁻¹ s⁻¹.
